Where a chain is given by its changes, count along the chain named.
T1: human MCM-CblA complex (Homo sapiens, UniProt Q8IVH4)
T1 sequence (Q8IVH4 66-418 limits assumed): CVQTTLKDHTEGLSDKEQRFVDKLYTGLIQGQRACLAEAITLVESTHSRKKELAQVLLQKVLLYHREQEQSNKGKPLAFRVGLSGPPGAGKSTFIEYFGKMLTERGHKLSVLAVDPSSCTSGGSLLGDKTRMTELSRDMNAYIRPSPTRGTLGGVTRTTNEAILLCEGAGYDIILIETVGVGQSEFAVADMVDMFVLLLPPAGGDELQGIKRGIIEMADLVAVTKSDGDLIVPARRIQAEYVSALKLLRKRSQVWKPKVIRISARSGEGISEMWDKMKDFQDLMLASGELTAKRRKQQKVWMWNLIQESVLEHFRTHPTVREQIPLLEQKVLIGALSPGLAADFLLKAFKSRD
T1 sequence (P22033 33-750 partner): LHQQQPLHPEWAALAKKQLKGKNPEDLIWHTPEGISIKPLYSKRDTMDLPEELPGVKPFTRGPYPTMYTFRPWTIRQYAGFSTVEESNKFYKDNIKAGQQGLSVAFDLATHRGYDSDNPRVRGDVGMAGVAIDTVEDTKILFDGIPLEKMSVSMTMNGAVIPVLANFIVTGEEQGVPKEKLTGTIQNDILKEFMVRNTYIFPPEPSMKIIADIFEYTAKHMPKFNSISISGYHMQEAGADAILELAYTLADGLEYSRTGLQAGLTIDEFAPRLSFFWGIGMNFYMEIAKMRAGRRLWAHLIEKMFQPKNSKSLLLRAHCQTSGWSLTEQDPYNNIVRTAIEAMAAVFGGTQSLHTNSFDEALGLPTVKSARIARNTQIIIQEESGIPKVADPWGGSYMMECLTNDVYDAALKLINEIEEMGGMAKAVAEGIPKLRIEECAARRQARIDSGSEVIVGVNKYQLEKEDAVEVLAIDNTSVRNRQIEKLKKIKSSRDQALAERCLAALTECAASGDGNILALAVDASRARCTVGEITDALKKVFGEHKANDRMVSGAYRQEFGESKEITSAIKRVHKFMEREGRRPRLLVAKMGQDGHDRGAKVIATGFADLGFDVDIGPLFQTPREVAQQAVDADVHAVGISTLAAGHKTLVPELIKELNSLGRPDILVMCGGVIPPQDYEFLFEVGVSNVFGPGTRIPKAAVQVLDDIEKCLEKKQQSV

T2: human CblA K276A (human, UniProt Q8IVH4 72-418, K276A)
T2 sequence: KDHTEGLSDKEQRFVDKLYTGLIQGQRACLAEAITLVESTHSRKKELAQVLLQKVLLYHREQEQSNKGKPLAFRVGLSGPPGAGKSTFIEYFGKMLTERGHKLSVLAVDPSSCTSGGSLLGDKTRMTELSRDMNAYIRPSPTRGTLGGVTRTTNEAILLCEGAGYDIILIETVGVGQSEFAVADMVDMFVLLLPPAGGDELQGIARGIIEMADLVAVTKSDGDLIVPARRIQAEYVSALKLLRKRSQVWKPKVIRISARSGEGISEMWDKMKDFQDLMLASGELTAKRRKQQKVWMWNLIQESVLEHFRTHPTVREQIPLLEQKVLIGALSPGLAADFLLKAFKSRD

T3: human CblA G274S (human, UniProt Q8IVH4 72-418, G274S)
T3 sequence: T2 sequence with G203S, A205K

T4: human CblA K276E (human, UniProt Q8IVH4 72-418, K276E)
T4 sequence: T2 sequence with A205E

T5: human CblA, wild type (human, UniProt Q8IVH4 72-418)
T5 sequence: T2 sequence with A205K

T6: human CblA G278D (human, UniProt Q8IVH4 72-418, G278D)
T6 sequence: T2 sequence with A205K, G207D

T7: human CblA Q273A (human, UniProt Q8IVH4 72-418, Q273A)
T7 sequence: T2 sequence with Q202A, A205K

B1: human methylmalonyl-CoA mutase (enzyme, UniProt P22033 33-750, looked up)
chain: T1 sequence (P22033 33-750 partner)

Tests used:
[1] = target: T1, human MCM-CblA complex; assay: gel filtration and negative stain EM; assay type: binding; details: MCM 25 μM, CblA 50 μM, GMPPCP 500 μM
[2] = target: T2, human CblA K276A; assay: cell-based or functional assay
[3] = target: T3, human CblA G274S; assay: cell-based or functional assay
[4] = target: T4, human CblA K276E; assay: cell-based or functional assay
[5] = target: T5, human CblA, wild type; assay: cell-based or functional assay
[6] = target: T6, human CblA G278D; assay: cell-based or functional assay
[7] = target: T7, human CblA Q273A; assay: cell-based or functional assay
[8] = target: T5, human CblA, wild type; assay: SEC-MALS

Row | Molecule | gel filtration and negative stain EM; block of AdoCbl transfer [1] | GTPase activity of CblA in the presence of MCM (GAP activation) [2] | GTPase activity of CblA in the presence of MCM (GAP activation) [3] | GTPase activity of CblA in the presence of MCM (GAP activation) [4] | GTPase activity of CblA in the presence of MCM (GAP activation) [5] | GTPase activity of CblA in the presence of MCM (GAP activation) [6] | GTPase activity of CblA in the presence of MCM (GAP activation) [7] | stoichiometry N [8]
1 | Nc1nc2c(ncn2[C@@H]2O[C@H](COP(=O)(O)OP(=O)(O)CP(=O)(O)O)[C@@H](O)[C@H]2O)c(=O)[nH]1 [GMPPCP] | higher order oligomeric peak seen in the presence of GMPPCP |  |  |  |  |  |  | 
2 | B1 |  | 2.98 min⁻¹ | 1.04 min⁻¹ | 0.92 min⁻¹ | 2.78 min⁻¹ | 3.07 min⁻¹ | 0.86 min⁻¹ | 2 MCM (dimer) per CblA (dimer)

From paper PMC6642015 (Cell chemical biology, 2019)
